Source: article PMC2897766

Tests used:
[1] = molecular target: Ire1^bipless, GFP- and mCherry-tagged copies (FRET pair) (yeast) (UniProt P32361); assay: FRET or BRET; microscopy-based FRET (spinning disc confocal) between GFP- and mCherry-tagged copies co-expressed in live yeast cells; untreated cells (no DTT)
[2] = molecular target: Ire1^bipless, GFP- and mCherry-tagged copies (FRET pair) (yeast) (UniProt P32361); assay: FRET or BRET; microscopy-based FRET (spinning disc confocal) between GFP- and mCherry-tagged copies co-expressed in live yeast cells; cells treated with 5 mM DTT for 4 h (for Ire1^bipless only 'in the presence of DTT' is printed)

FRET signal [1]: 0.17 a.u.
FRET signal [2]: 0.71 a.u.
Substance: Ire1^bipless, GFP- and mCherry-tagged copies (FRET pair) (from UniProt P32361 19-474; P32361 527-1115) (natural protein)
